From patent US20190389958A1 (MSM PROTEIN TECHNOLOGIES, published 2019)

T1: hCCR3 (human, UniProt P51677 1-355)
T1 construct: whole, on cells
T1 sequence (looked up): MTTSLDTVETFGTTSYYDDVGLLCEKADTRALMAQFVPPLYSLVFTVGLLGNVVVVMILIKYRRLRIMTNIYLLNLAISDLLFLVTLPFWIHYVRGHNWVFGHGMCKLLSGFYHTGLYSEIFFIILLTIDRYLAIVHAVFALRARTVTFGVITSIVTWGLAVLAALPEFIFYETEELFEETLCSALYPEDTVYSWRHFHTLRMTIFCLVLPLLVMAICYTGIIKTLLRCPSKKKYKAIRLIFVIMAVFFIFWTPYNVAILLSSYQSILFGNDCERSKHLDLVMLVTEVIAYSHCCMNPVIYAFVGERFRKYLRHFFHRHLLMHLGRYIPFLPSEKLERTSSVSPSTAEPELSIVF

T2: hCCR6 (human, UniProt P51684 1-374)
T2 construct: whole, on cells
T2 sequence (looked up): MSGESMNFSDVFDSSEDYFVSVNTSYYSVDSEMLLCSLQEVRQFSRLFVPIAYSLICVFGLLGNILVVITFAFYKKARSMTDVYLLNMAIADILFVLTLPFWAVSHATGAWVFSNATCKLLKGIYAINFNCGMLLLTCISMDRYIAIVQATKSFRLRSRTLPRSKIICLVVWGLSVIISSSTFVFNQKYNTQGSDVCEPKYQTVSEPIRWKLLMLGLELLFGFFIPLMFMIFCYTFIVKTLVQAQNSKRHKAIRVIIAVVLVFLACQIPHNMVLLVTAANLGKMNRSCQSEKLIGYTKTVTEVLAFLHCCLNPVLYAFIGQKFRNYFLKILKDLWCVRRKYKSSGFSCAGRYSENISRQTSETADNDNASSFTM

T3: hCCR10 (human, UniProt P46092 1-362)
T3 construct: whole, on cells
T3 sequence (looked up): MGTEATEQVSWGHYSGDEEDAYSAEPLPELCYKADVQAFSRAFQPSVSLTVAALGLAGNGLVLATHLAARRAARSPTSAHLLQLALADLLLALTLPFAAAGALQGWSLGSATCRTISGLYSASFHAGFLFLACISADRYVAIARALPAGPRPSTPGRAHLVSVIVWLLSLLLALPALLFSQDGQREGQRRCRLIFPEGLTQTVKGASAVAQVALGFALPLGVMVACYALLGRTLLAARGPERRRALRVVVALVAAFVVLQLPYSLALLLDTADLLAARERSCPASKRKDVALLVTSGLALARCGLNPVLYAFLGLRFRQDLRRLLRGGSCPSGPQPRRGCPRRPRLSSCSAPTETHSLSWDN

T4: hCXCR3 (human, UniProt P49682 1-368)
T4 construct: whole, on cells
T4 sequence (looked up): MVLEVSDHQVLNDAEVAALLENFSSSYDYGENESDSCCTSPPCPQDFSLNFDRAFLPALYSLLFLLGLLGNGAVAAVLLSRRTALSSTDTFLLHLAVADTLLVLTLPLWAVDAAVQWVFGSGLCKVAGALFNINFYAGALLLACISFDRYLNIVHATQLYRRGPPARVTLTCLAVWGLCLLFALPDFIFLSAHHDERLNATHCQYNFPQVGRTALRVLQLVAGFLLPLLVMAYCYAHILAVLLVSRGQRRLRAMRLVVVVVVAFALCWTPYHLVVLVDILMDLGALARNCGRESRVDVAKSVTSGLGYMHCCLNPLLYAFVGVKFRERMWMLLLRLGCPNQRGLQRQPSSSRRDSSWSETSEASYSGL

B1: V62.1-R108H-m47-m38 (antibody, human IgG1, V domains shown)
VH: EVQLLESGGGLVQPGGSLRLSCAASGFTFSSYAMSWVRQAPGKGLEWVSAISGSGGTRYADSVKGRFTISRDNSKNTLYLQMNSLRAEDTAVYYCARQGKTRVYGYHWHGYGSTHALDYWGQGTLVTVSS
VL: EIVLTQSPGTLSLSPGERATLSCRASQSVSSSYLAWYQQKPGQAPRLLIYGASSRATGIPDRFSGSGSGTDFTLTISRLEPEDFAVYYCQQWSSDSVTFGQGTKVEIKR
notes: Tested as an IgG (human IgG1 format); also called V62.1-H-m47-m38; IgG1 62.1-R108H-m47-m38
B2: V62.1-R108H (antibody, human IgG1, V domains shown)
VH: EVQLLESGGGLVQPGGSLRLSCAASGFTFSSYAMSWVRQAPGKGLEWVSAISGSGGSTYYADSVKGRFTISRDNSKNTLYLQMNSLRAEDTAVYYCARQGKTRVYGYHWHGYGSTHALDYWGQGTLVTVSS
VL: EIVLTQSPGTLSLSPGERATLSCRASQSVSSSYLAWYQQKPGQAPRLLIYGASSRATGIPDRFSGSGSGTDFTLTISRLEPEDFAVYYCQQSDYSYPFTFGQGTKVEIKR
notes: Tested as an IgG (human IgG1 format); also called IgG1 V62.1 R108H
B3: V62.1 (antibody, human IgG1, V domains shown)
VH: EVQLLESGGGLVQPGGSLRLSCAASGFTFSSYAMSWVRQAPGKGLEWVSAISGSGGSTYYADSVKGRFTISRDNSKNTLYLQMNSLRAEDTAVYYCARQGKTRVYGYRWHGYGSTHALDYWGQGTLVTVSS
VL: B2 VL
notes: Tested as an IgG (human IgG1 format; DP47 heavy and DPK22 kappa light frameworks) made in CHO-3E7 cells; also called IgG V62.1
B4: V62.1-R108H-m80 (antibody, human IgG1, V domains shown)
VH: EVQLLESGGGLVQPGGSLRLSCAASGFTISPYSITWVRQAPGKGLEWVSQINSYNGKTYYADSVKGRFTISRDNSKNTLYLQMNSLRAEDTAVYYCARQGKTRVYGYHWHGYGSTHALDYWGQGTLVTVSS
VL: B2 VL
notes: Tested as an IgG (human IgG1 format); also called V62.1-H-m80; V62.1-R108H-m80-Wt

target: T5, human CXCR4 (human, UniProt P61073 1-352); assay: cell-based or functional assay
T5 sequence (P61073 whole entry): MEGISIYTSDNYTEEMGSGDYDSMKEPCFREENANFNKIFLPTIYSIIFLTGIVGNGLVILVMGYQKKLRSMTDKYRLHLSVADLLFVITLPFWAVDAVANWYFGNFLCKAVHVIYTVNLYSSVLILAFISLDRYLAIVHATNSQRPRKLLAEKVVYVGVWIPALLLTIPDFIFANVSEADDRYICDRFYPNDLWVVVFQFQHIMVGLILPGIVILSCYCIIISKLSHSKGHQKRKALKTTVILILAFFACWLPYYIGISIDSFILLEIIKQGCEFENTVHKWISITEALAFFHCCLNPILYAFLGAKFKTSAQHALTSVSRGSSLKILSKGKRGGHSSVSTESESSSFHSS

IC50 (nM), inhibition of SDF-1alpha-induced calcium flux | Binder
5 nM | B1
6.8 nM | B2
7.4 nM | B3
7.5 nM | B4

target: T5, human CXCR4; assay: cell-based or functional assay; remark: another data set of the same source

% Inhibition of SDF-1alpha-induced chemotaxis of U937 cells (IgG at 100 nM) | Binder
78% | B1
69% | B2
76% | B3
75% | B4

target: T1, hCCR3; assay: flow cytometry, IgG 100 nM, cells over-expressing hCCR3
Protocol: (§1) Cells over-expressing different GPCRs other than CXCR4 and several lines transfected to over-express CXCR4 (R1610-hCXCR4, Cf2Th-hCXCR4 and CHO-hCXCR4) were compared. Cultures were incubated with a test IgG at 100 nM in FACS buffer for 40 min at 4° C. Thereafter, cells were washed twice, stained with anti-human-Fc antibody-PE conjugate (Jackson Immunoresearch Laboratories Inc., West Grove, Pa.), washed twice in FACS buffer and then transferred to FIX buffer. Fluorescence intensities were measured by GUAVA PCA-96 at 425V (in triplicate).
(§2) The expression of GPCRs other than CXCR4 was confirmed using commercially available antibodies (positive controls). For example, a commercial anti-CXCR1 antibody was used as a positive control for confirming the expression of CXCR1 on the CXCR1-transfected CHO cells.

MFI | Binder
4 | B2
4 | B3
2 | B4

target: T6, hCCR5 (human, UniProt P51681 1-352); assay: flow cytometry, IgG 100 nM, cells over-expressing hCCR5
T6 construct: whole, on cells
T6 sequence (P51681 whole entry): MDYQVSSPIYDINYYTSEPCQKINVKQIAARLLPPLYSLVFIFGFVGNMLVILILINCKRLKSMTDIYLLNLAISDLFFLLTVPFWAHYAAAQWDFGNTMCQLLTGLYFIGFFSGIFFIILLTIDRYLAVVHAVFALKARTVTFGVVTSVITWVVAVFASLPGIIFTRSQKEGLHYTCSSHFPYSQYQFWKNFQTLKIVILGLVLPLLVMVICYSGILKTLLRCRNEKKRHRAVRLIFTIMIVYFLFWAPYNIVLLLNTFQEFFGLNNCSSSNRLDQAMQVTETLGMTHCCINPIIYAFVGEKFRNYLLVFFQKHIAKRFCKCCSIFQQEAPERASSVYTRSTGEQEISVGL
Protocol: as §1, §2

MFI | Binder
2 | B1
3 | B2
4 | B3
8 | B4

target: T2, hCCR6; assay: flow cytometry, IgG 100 nM, cells over-expressing hCCR6
Protocol: as §1, §2

MFI | Binder
2 | B1
3 | B2
3 | B3
10 | B4

target: T3, hCCR10; assay: flow cytometry, IgG 100 nM, cells over-expressing hCCR10
Protocol: as §1, §2

MFI | Binder
2 | B1
3 | B2
4 | B3
10 | B4

target: T4, hCXCR3; assay: flow cytometry, IgG 100 nM, cells over-expressing hCXCR3
Protocol: as §1, §2

MFI | Binder
2 | B1
3 | B2
3 | B3
2 | B4

target: T7, hCXCR6 (human, UniProt O00574 1-342); assay: flow cytometry, IgG 100 nM, cells over-expressing hCXCR6
T7 construct: whole, on cells
T7 sequence (O00574 whole entry): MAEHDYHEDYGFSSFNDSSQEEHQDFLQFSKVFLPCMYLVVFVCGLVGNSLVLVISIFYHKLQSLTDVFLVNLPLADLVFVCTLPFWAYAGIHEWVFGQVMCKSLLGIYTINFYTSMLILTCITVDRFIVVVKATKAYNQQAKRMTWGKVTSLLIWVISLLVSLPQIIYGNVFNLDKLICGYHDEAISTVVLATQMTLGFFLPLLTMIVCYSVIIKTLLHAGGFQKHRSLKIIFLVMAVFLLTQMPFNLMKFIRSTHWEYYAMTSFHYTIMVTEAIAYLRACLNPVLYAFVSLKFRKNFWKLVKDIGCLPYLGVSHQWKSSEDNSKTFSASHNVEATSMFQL
Protocol: as §1, §2

MFI | Binder
2 | B1
3 | B2
3 | B3
7 | B4

target: T8, hCXCR7 (human, UniProt P25106 1-362); assay: flow cytometry, IgG 100 nM, cells over-expressing hCXCR7
T8 construct: whole, on cells
T8 sequence (P25106 whole entry): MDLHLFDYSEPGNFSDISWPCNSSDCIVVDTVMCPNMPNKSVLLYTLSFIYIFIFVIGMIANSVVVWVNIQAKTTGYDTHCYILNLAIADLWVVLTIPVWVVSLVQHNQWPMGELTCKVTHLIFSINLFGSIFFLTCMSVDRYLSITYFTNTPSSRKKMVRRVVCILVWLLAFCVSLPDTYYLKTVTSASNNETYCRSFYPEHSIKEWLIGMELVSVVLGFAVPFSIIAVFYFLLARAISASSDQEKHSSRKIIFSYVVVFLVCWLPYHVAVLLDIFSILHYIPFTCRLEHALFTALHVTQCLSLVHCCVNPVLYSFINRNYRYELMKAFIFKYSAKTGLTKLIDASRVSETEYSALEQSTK
Protocol: as §1, §2

MFI | Binder
2 | B1
4 | B2
3 | B3
2 | B4

target: T5, human CXCR4; assay: flow cytometry on Cf2-Th cells transfected with human CXCR4, IgG1 format
Protocol: A typical protocol for the fluorescent flow cytometry-based assay was as follows. Ten microliter of a purified test IgG solution or buffer as a control were added to 10 microliter of a suspension containing approximately 30,000 Cf2-Th cells transfected to express human CXCR4. After incubation on ice for 40 min, cells were washed with FACS buffer (phosphate-buffered saline (PBS), pH7.4; 2% fetal calf serum, 0.1% sodium azide) to remove unbound antibodies. Ten microliter of a solution of phycoerythrin (PE)-conjugated mouse anti-human Fc monoclonal antibody (1/20 dilution; catalog number 12-4998-82, eBioscience Inc., San Diego, Calif.) were then added to the cells, and, after a 30-min incubation on ice, cells were washed twice and then formalin-fixed (FIX buffer: PBS, pH7.4; 0.5% formaldehyde). Fixed samples were analysed by fluorescent flow cytometry using a Guava-PCA96 instrument (EMD Millipore Chemicals, Merck KGaA, Darmstadt, Germany).

EC50 | Binder
< 10 nM | B1
< 10 nM | B2
< 10 nM | B3
< 10 nM | B4
